From paper PMC7614769
Values joined by “and” are separate entries in the source; they are usually repeats but may differ in a detail not shown here. Identical values can stand only once.

Target: human FcμR ectodomain (human) (UniProt O60667)
Assay: BLI; FcμR (20 μg/ml) captured on AMC (anti-mouse IgG-Fc capture) biosensors by the anti-FcμR antibody RR-16; full-length or proteolysed IgM 0.08-10 nM in solution; PBS, 0.005% Tween 20, 25 °C; apparent Kd from response against IgM concentration, 1:1 binding model

Sequence of human FcμR ectodomain (human) (O60667 17-251): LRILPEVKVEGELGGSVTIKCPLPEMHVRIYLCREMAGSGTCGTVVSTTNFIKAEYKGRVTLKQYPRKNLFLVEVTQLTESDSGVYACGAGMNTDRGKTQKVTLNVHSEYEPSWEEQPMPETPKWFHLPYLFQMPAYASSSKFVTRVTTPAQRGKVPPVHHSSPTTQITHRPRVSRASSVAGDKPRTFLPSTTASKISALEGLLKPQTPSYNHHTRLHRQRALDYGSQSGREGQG
Sequence of Full-length IgM (myeloma), pentamer with J chain (P01591 whole entry, looked up): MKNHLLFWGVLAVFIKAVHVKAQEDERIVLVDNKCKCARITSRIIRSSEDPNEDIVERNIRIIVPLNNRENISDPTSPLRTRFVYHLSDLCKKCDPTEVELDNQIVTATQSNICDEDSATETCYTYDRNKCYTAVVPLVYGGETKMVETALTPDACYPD

Kd: 0.3 nM and 0.4 nM
Substance: Full-length IgM (myeloma), pentamer with J chain (from UniProt P01591 23-159) (antibody)
